Experiments:
[1] = molecular target: T1, human CNTN4 antigen expressed on the cell membrane of 293FT cells (human) (UniProt Q8IWV2); experiment: FACS, 293FT cells transfected with human CNTN4, 40 ug/mL, anti-hCk-PE
T1 sequence (looked up): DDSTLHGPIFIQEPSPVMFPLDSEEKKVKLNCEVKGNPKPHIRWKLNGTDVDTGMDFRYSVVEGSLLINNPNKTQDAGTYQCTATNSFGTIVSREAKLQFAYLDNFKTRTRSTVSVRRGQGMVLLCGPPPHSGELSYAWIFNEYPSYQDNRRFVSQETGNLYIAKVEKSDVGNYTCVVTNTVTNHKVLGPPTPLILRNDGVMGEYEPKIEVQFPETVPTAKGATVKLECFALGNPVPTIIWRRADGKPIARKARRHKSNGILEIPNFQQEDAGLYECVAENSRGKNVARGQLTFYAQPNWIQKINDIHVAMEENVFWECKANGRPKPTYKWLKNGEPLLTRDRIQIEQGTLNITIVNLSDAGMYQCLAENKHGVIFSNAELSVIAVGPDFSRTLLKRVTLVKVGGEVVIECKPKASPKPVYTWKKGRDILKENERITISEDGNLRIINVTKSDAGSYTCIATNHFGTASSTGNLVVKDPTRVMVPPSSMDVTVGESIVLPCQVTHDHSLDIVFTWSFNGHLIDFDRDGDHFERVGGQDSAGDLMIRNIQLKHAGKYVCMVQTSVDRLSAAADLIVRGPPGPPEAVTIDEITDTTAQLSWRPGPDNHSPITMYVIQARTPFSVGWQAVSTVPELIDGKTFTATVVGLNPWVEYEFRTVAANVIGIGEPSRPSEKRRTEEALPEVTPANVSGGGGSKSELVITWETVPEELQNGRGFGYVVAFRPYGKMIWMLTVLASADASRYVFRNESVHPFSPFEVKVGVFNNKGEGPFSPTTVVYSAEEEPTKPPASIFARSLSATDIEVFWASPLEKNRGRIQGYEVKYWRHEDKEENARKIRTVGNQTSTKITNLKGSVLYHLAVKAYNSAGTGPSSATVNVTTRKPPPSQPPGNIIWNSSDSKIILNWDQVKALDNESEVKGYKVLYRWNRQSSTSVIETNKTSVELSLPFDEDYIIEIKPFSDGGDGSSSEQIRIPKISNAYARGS

[2] = molecular target: T2, human CNTN4-rabbit Fc (human; rabbit, UniProt Q8IWV2 19-1000, limits assumed); experiment: ELISA, plate coated with antigen-rabbit Fc, anti-human kappa-HRP
T2 construct: not shown: rabbit Fc
T2 sequence (looked up): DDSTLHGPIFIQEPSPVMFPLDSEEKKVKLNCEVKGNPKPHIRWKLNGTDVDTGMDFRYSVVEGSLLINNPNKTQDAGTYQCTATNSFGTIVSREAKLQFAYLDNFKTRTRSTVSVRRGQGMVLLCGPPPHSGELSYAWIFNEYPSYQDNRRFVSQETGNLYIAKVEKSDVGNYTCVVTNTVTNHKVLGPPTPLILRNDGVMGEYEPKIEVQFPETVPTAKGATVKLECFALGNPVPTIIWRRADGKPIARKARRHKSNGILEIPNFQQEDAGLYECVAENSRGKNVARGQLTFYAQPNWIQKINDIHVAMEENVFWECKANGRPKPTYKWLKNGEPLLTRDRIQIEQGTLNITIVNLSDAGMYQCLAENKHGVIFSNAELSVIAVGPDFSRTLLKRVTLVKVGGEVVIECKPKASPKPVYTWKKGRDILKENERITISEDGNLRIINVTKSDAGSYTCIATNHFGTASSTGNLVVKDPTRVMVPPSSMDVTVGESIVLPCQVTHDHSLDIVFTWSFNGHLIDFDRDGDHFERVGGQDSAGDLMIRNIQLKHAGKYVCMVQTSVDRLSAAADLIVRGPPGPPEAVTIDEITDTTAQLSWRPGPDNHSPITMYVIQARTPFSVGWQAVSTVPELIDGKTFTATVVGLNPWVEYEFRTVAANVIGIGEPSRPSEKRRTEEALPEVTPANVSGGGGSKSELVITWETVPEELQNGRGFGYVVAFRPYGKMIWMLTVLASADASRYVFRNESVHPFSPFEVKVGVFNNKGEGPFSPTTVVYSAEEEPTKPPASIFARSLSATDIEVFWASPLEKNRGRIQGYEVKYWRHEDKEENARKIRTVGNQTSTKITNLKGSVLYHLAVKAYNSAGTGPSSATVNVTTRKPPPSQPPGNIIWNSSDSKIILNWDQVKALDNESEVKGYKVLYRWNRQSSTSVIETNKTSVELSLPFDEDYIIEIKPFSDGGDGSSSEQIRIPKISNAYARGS

[3] = molecular target: T3, mouse CNTN4-rabbit Fc (mouse; rabbit, UniProt Q69Z26 19-1000, limits assumed); experiment: as above
T3 construct: not shown: rabbit Fc
T3 sequence (looked up): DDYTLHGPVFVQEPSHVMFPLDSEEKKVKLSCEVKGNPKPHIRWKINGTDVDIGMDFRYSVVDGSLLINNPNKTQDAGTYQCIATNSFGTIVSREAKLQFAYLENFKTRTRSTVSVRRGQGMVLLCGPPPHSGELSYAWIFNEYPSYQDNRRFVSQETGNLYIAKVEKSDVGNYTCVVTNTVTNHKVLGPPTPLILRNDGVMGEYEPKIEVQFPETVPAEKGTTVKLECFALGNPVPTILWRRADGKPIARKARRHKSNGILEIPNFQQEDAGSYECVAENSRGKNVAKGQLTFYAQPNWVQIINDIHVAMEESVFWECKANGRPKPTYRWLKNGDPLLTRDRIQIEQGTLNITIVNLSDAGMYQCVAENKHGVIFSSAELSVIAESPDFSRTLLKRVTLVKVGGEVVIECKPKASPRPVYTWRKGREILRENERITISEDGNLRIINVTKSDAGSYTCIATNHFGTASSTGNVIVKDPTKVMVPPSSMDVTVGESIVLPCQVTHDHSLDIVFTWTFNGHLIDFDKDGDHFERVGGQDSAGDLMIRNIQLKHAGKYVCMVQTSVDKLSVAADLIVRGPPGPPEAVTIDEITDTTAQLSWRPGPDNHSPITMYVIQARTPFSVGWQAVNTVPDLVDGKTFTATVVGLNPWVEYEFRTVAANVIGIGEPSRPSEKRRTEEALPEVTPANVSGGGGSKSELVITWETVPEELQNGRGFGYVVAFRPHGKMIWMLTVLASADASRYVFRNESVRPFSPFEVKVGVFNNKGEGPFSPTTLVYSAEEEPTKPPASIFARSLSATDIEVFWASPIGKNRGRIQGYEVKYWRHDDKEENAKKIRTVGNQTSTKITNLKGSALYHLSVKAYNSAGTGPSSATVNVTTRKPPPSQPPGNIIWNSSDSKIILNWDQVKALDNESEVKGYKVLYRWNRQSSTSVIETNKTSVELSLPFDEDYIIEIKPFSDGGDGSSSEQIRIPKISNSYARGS

B1: anti-CNTN4 scFv-hCk S132 (scFv, part only; not given: linker and kappa constant region, V domains shown, not shown: another chain or arm of the molecule; a dimerising Fc or GST; small tags and cut ends)
VL: ALTQPSSVSANPGETVKITCSGGGSSTYYGWYQQKSPGSAPVTVIYNNNNRPSDIPSRFSGSGSGSTGTLTITGVRAEDEAVYYCGGYDGSTDVFGAGTTLTVL
VH: AVTLDESGGGLQTPGGALSLVCKASGFTFSSFNMFWVRQAPGKGLEYVAEISGGGGSTWYAPAVKGRATISRDNGQSTVRLQLNNLRAEDTGTYYCAKSADTWSYGAATIDAWGHGTEVIVSS
B1 gave a Shift % [1] of 16.1%, an EC50 [2] of 1.16 nM and an EC50 [3] of 0.72 nM.

B2: anti-CNTN4 scFv-hCk S138 (scFv, part only; not given: linker and kappa constant region, V domains shown, not shown: another chain or arm of the molecule; a dimerising Fc or GST; small tags and cut ends)
VL: ALTQPSSVSANPGETVNITCSGGGSYAGSYYYGWYQQKAPGSAPVTVIYDSTNRPSNIPSRFSGSLSGSTNTLTITGVRAEDEAVYYCGGYDGSTDVFGAGTTLTVL
VH: AVTLDESEGGLQTPGGALSLVCKASGFTFSSFNMFWVRQAPGKGLEYVAEISGGGGSTWYAPAVKGRATISRDNGQSTVRLQLNNLRAEDTGTYYCAKSADTWSYGAATIDAWGHGTEVIVSS
Binder B2 has a Shift % [1] of 15.8%, an EC50 [2] of 2.37 nM and an EC50 [3] of 1.06 nM.

B3: anti-CNTN4 scFv-hCk S135 (scFv, part only; not given: linker and kappa constant region, V domains shown, not shown: another chain or arm of the molecule; a dimerising Fc or GST; small tags and cut ends)
VL: ALTQPSSVSANPGETVKITCSGGGSSSYYGWYQQKSPGSAPVTVIYYNNRPSDIPSRFSGSGSGSTGTLTITGVRAEDEAVYYCGGYDGSTDVFGAGTTLTVL
VH: AVTLDESEGGLQTPGGALSLVCKASGFTFSSFNMFWVRQAPGKGLEYVAEISGGGGSTWYAPAVKGRATISRDNGQSTVRLQLNNLRAEDTGTYYCAKSADTWSYGAATIDAWGHGTEVIVSS
B3 gave a Shift % [1] of 18.2%, an EC50 [2] of 1.06 nM and an EC50 [3] of 0.71 nM.

B4: anti-CNTN4 scFv-hCk S134 (scFv, part only; not given: linker and kappa constant region, V domains shown, not shown: another chain or arm of the molecule; a dimerising Fc or GST; small tags and cut ends)
VL: ALTQPSSVSANPGETVKITCSGGTYSYGNYYYGWYQQKSPGSAPVTVIYNNNNRPSDIPSRFSGSGSGSTGTLTITGVRAEDEAVYYCGGYDGSTDVFGAGTTLTVL
VH: AVTLDESEGGLQTPGGALSLVCKASGFTFSSFNMFWVRQAPGKGLEYVAEISGGGGSTWYAPAVKGRATISRDNGQSTVRLQLNNLRAEDTGTYYCAKSADTWSYGAATIDAWGHGTEVIVSS
B4 showed a Shift % [1] of 18%, an EC50 [2] of 0.75 nM and an EC50 [3] of 0.75 nM.

B5: anti-CNTN4 scFv-hCk S131 (scFv, part only; not given: linker and kappa constant region, not shown: a dimerising Fc or GST)
scFv, part: ALTQPSSVSANLGGTVKITCSGGGSSYYGWYQQKSPGSAPVTLIYQNTNRPSNIPSRFSGSGSGSTGTLTITGVRAEDEAVYYCGGYDGSTDVFGAGTTLTVLAVTLDESEGGLQTPGGALSLVCKASGFTFSSFNMFWVRQAPGKGLEYVAEISGGGGSTWYAPAVKGRATISRDNGQSTVRLQLNNLRAEDTGTYYCAKSADTWSYGAATIDAWGHGTEVIVSS
B5 was tested, and the Shift % [1] was 16.6%, the EC50 [2] was 0.74 nM and the EC50 [3] was 0.56 nM.

B6: anti-CNTN4 scFv-hCk S129 (scFv, part only; not given: linker and kappa constant region, not shown: a dimerising Fc or GST)
scFv, part: ALTQPSSVSANLGETVKITCSGSSGSYGWYQQKSPGSAPVTLIYDNTNRPSDIPSRFSGSGSGSTGTLTITGVRAEDEAVYYCGGYDGSTDVFGAGTTLTVLAVTLDESEGGLQTPGGALSLVCKASGFTFSSFNMFWVRQAPGKGLEYVAEISGGGGSTWYAPAVKGRATISRDNGQSTVRLQLNNLRAEDTGTYYCAKSADTWSYGAATIDAWGHGTEVIVSS
B6 was tested, and the Shift % [1] was 16%, the EC50 [2] was 0.55 nM and the EC50 [3] was 0.37 nM.

B7: anti-CNTN4 scFv-hCk S137 (scFv, part only; not given: linker and kappa constant region, not shown: a dimerising Fc or GST)
scFv, part: ALTQPSSVSANPGETVKITCSGGSSYGWYQQKSPGSAPVTVIYDNTNRPSNIPSRFSGSKSGSTNTLTITGVQAEDEAVYYCGGYDGSTDAFGAGTTLTVLAVTLDESEGGLQTPGGALSLVCKASGFTFSSFNMFWVRQAPGKGLEYVAEISGGGGSTWYAPAVKGRATISRDNGQSTVRLQLNNLRAEDTGTYYCAKSADTWSYGAATIDAWGHGTEVIVSS
B7 gave a Shift % [1] of 15.3%, an EC50 [2] of 0.41 nM and an EC50 [3] of 0.52 nM.
